Drawing on paper PMC9638933, this text covers Kd for one molecule.

Experiment in all cases: EMSA; 5 mM Mg2+
Holding throughout (conditions): protein: recombinant; tags: His (Ni-NTA purified; pMCSG7); chain copies: 2; label: 5' 6-FAM on strand 1; blunt

In one data set the target is T1, Ku D247A (Mycobacterium tuberculosis, UniProt P9WKD9 1-273, D247A).
T1 sequence: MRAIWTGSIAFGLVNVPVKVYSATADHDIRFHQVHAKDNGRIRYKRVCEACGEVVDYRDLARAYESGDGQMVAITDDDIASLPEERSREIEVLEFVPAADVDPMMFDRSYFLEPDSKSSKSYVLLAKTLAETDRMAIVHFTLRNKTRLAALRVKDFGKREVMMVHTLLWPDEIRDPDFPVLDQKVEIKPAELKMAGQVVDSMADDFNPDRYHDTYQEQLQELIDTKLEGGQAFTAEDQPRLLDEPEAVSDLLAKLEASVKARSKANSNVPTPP

For another data set, the target named is T2, Ku D250A (Mycobacterium tuberculosis, UniProt P9WKD9 1-273, D250A).
T2 sequence: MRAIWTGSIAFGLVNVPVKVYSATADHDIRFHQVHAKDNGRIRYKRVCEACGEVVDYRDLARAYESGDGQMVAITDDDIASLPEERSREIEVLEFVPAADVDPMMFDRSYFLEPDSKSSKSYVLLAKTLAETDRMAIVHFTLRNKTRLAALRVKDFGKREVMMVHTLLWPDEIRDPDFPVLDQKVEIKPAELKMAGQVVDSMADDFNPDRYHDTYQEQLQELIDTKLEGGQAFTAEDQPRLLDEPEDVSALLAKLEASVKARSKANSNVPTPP

Another data set has as its target T3, Ku R262A (Mycobacterium tuberculosis, UniProt P9WKD9 1-273, R262A).
T3 sequence: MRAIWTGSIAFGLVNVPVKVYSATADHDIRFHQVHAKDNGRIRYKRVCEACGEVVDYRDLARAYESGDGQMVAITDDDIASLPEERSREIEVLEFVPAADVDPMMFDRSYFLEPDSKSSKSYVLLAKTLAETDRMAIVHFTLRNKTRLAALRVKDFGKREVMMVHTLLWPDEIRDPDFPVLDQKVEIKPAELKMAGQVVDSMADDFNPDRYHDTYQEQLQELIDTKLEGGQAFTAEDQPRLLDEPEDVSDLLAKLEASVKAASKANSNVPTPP

A further data set deals with T4, Ku S258A (Mycobacterium tuberculosis, UniProt P9WKD9 1-273, S258A).
T4 sequence: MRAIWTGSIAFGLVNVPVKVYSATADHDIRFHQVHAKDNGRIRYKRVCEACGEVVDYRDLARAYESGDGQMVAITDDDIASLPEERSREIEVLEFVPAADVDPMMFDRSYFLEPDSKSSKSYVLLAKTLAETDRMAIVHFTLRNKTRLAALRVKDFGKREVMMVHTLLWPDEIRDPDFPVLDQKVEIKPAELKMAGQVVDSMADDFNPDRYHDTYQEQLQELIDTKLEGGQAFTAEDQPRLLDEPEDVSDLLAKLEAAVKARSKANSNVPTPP

The next data set concerns the target T5, Ku L251A (Mycobacterium tuberculosis, UniProt P9WKD9 1-273, L251A).
T5 sequence: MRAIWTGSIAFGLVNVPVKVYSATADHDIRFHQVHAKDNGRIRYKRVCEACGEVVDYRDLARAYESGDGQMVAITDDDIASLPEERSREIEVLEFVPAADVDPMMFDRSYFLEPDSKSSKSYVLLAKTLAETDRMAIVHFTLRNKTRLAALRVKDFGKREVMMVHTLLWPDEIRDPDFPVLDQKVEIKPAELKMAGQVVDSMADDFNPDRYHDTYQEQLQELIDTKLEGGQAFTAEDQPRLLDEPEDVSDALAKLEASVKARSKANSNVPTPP

B1: 40 bp dsDNA (dsDNA)
DNA 1: CAGGGTAAGTGTGGAGGTGTAGGGAAGGGAATGTTGTCTG
DNA 2: CAGACAACATTCCCTTCCCTACACCTCCACACTTACCCTG
Take B1: the dissociation constant Kd with Ku D247A was determined as 160 ± 10 nM; with Ku D250A it was 140 ± 10 nM; with Ku R262A, 140 ± 10 nM; in the data set with Ku S258A, 1340 ± 290 nM; with Ku L251A, 1300 ± 190 nM.

What is called Kd is the free concentration of one partner at which half of the binding sites on the other are occupied at equilibrium, for simple one-to-one binding.
